From patent publication US12365732 (23ANDME, dated 2025)

Columns and labels:
[1] = molecular target: T1, hu-CD96 isoform 2 on CHO cells (human, UniProt P40200 22-585); test: FACS, CD155-Fc-FLAG 10 nM, Ab 0.032 nM
T1 construct: also called CHO-CD96 (isoform 2); CD96-CHOs
T1 sequence: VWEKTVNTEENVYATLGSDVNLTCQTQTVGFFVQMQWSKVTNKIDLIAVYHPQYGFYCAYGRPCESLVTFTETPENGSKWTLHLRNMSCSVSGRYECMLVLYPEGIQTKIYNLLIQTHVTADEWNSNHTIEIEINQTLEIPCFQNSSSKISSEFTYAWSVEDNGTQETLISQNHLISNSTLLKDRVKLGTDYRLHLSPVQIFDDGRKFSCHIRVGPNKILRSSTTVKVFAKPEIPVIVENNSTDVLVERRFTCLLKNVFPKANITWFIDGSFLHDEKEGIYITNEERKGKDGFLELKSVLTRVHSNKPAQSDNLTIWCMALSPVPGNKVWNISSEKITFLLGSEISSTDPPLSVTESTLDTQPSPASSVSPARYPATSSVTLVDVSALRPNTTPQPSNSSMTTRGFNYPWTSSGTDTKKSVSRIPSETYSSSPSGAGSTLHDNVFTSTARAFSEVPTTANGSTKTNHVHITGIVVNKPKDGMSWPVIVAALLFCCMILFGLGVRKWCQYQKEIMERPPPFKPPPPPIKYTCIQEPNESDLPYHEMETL
Method: (§1) CHO cells stably expressing isoform 2 of hu-CD96 (Origene, catalog #RC221005) were incubated with anti-CD96 antibodies for 20 minutes at 4° C. The cells were washed, and then incubated with 10 nM human CD155-Fc-FLAG for 30 minutes at 4° C. Cells were washed, and then human CD155-Fc-FLAG binding was detected by incubation with anti-FLAG-APC (Columbia Biosciences, catalog #D3-1718-1MG) for 20 minutes at 4° C. Cell binding was analyzed by flow cytometry with a CytoFLEX (Beckman Coulter). CD155 binding is represented as median fluorescence intensity (MedFI).
(§2) As shown in Table 20 (below), the anti-CD96 antibodies, mAb1.v7.NGS8, mAb1.v7.NGS9, mAb1.v7.NGS10, mAb1.v7.NGS11, and h10G1 inhibited soluble hu-CD155 binding to CD96-expressing CHO cells dose-dependently and potently. The antibody NK92.39 (Fuchs et al., 2004; Biolegend catalog #338405) inhibited receptor binding similarly.

[2] = molecular target: T1, hu-CD96 isoform 2 on CHO cells; test: FACS, CD155-Fc-FLAG 10 nM, Ab 0.0064 nM
Method: as §1, §2

[3] = molecular target: T1, hu-CD96 isoform 2 on CHO cells; test: FACS, CD155-Fc-FLAG 10 nM, Ab 4 nM
Method: as §1, §2

[4] = molecular target: T1, hu-CD96 isoform 2 on CHO cells; test: FACS, CD155-Fc-FLAG 10 nM, Ab 100 nM
Method: as §1, §2

[5] = molecular target: T2, hu-CD96 isoform 1 on HEK293T cells (human, UniProt P40200 22-585); test: FACS, Ab 10 nM
T2 construct: Origene RC213845, transient expression; also called HEK293T-CD96 (iso1)
T2 sequence: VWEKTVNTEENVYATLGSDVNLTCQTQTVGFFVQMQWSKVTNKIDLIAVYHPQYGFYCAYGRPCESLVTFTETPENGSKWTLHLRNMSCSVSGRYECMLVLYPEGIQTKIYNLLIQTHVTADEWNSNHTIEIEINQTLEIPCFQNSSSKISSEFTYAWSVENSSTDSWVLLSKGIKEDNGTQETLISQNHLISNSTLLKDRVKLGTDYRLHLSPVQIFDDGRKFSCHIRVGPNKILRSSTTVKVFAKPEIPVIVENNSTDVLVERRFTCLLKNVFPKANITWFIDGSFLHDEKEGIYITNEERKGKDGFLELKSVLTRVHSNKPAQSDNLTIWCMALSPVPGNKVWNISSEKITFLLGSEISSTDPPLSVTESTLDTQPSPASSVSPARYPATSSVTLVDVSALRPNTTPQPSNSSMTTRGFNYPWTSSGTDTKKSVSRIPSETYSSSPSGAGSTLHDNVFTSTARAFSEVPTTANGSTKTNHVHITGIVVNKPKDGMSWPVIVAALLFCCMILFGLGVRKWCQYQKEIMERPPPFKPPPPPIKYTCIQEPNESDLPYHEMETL
Method: (§3) Isoform 1 of hu-CD96 (Origene, catalog #RC213845) was transiently expressed in HEK293T cells following standard lipofectamine or Fugene transfection protocol. […] Cells were washed, and binding was detected by incubation with anti-mouse IgG-FITC (Biolegend, catalog #406001) for 20 minutes at 4° C. Cell binding was analyzed by flow cytometry with a CytoFLEX (Beckman Coulter). Binding curves were calculated as a percentage of cells positive for bound antibody.

[6] = molecular target: T2, hu-CD96 isoform 1 on HEK293T cells; test: FACS, Ab 0.08 nM
Method: as §3

[7] = molecular target: T1, hu-CD96 isoform 2 on CHO cells; test: FACS, Ab 0.0032 nM
Method: as §3
(§4) Isoform 2 of hu-CD96 (DNA construct: Origene, catalog #RC221005) was expressed on a single-cell-clone-derived CHO stable cell line. Binding of the anti-CD96 antibodies to the CHO cells were determined as described above with isoform 1 of hu-CD96.

[8] = molecular target: T1, hu-CD96 isoform 2 on CHO cells; test: FACS, Ab 50 nM
Method: as §3, §4

[9] = molecular target: T2, hu-CD96 isoform 1 on HEK293T cells; test: FACS, Ab 0.016 nM
Method: as §3

[10] = molecular target: T1, hu-CD96 isoform 2 on CHO cells; test: FACS, % positive curve
Method: as §3, §4

Binder | CD155-Fc binding (MedFI) [1] | CD155-Fc binding (MedFI) [2] | CD155-Fc binding (MedFI) [3] | CD155-Fc binding (MedFI) [4] | % positive [5] | % positive [6] | % positive [7] | % positive [8] | % positive [9] | EC50 [10]
h10G1 IgG (humanized 10G1) (antibody, V domains shown, human IgG1 N297G) VH: EIQLVQSGSELKKPGASVKVSCKASGYPFTTYGMSWVRQAPGQGLEWMGWINTDSGVPTYADDFKGRFVFSLDTSVSTAYLQISSLKAEDTAVYFCARNIYYGWGNFDYWGQGTLVTVSS VL: EIVMTQSPDFQSVTPKEKVTITCRASQDIYRNLHWYQQKPDQTPKLLIKHASDSISGIPSRFSGSGSGTDFTLTINSLEAEDAAAYYCLQGYSMPYTFGGGTKVEIKG | 52100 MedFI | 65700 MedFI | 4860 MedFI | 5120 MedFI | – | – | – | – | – | –
mAb1.v7 IgG (humanized 12F8) (antibody, V domains shown, human IgG1 N297G) VH: EVQLVQSGAEVKKPGASVKVSCKASGFTFTNNWMHWVRQAPGQGLEWIGMIHPNSGITNINEKFKNRVTMTTDTSTSTAYMELRSLRSEDTAVYYCRSDGTYEGYFDYWGQGTLVTVSS VL: DIQLTQSPSSLSASVGDRVTITCKASQNVGTAIVWYQQKPGKAPKVLIYSASTRYTGVPSRFSGSGSGTDFTLTISSLQPEDFATYYCQQYSSSPLTFGQGTKVEIKG | – | – | – | – | 48.8% | 0.8% | 0.5% | 44.1% | 0.5% | 520 pM
mAb1.v7.NGS11 IgG (antibody, V domains shown, human IgG1 N297G) VH: EVQLVQSGAEVKKPGASVKVSCKASGFTFTNNFMHWVRQAPGQGLEWIGFIHANSGITNINEKFKNRVTMTTDTSTSTAYMELRSLRSEDTAVYYCRSDGVYEGYFDYWGQGTLVTVSS VL: DIQLTQSPSSLSASVGDRVTITCKASQNVGTAIVWYQQKPGKAPKVLIYSASTRYTGVPSRFSGSGSGTDFTLTISSLQPEDFATYYCQQYSSSPLTFGQGTKVEIKG | 57700 MedFI | 63600 MedFI | 4860 MedFI | 4210 MedFI | – | – | – | – | – | –
mAb1.v7.NGS10 IgG (antibody, V domains shown, human IgG1 N297G) VH: EVQLVQSGAEVKKPGASVKVSCKASGFTFTNNFMHWVRQAPGQGLEWIGFIHANSGITNINEKFKNRVTMTTDTSTSTAYMELRSLRSEDTAVYYCRSDGIYEGYFDYWGQGTLVTVSS VL: DIQLTQSPSSLSASVGDRVTITCKASQNVGTAIVWYQQKPGKAPKVLIYSASTRYTGVPSRFSGSGSGTDFTLTISSLQPEDFATYYCQQYSSSPLTFGQGTKVEIKG | 57700 MedFI | 55900 MedFI | 4940 MedFI | 5110 MedFI | – | – | – | – | – | –
mAb1.v7.NGS9 IgG (antibody, V domains shown, human IgG1 N297G) VH: EVQLVQSGAEVKKPGASVKVSCKASGFTFTNNFMHWVRQAPGQGLEWIGMIHANSGITNINEKFKNRVTMTTDTSTSTAYMELRSLRSEDTAVYYCRSDGVYEGYFDYWGQGTLVTVSS VL: DIQLTQSPSSLSASVGDRVTITCKASQNVGTAIVWYQQKPGKAPKVLIYSASTRYTGVPSRFSGSGSGTDFTLTISSLQPEDFATYYCQQYSSSPLTFGQGTKVEIKG | 53000 MedFI | 56600 MedFI | 6100 MedFI | 4140 MedFI | – | – | – | – | – | –
7E5, purified hybridoma antibody (antibody, V domains shown, murine hybridoma IgG) VH: QVQLKESGPGLVAPSQSLSIICTVSGFSLTNYGIHWIRQPPGKGLEWLGIIWAGGSTNYNSALMSRLTISKDNSKSQVFLKMNSLQTNDTAIYYCARVSMMGFAYWGQGTLVTVSA VL: QAVVTQESALTTSPGETVTLTCRSSTGAVTTSNYANWVQEKPDHLFTGLIGGTNNRAPGVPARFSGSLIGDKAALTITGAQTEDEAIYFCSLWYGSHWVFGGGTKLTVL | – | – | – | – | 47.4% | 8.5% | 0.1% | 58.9% | 1% | 110 pM
9H4, purified hybridoma antibody (antibody, V domains shown, murine hybridoma IgG) VH: EVQLLETGGGLVKSGGSLKLSCAASGFTFSDYYMYWVRQTPEKRLEWVAAISDDGTYTYYPDSVKGRFTISRDNANNYLYLQMSSLKSEDTAIYYCAKAGSYDYFDVWGAGTTVTVSS VL: DIVLTQSPASLAVSLGQRAIISCKASQSVTFADTGLMHWYQQKPGQQPKLLIYRASNLEVGVPTRFSGSGSGTDFTLNIHPVEEEDVATYYCQQSREYPWTFGGGTKLEIK | – | – | – | – | 48.4% | 1.5% | 0.3% | 46.2% | 0.5% | 380 pM
10G1 (clone 10G1.3G8), purified hybridoma antibody (antibody, V domains shown, murine hybridoma IgG) VH: QIQLVQSGPELKKPGETVKISCKASGYPFTTYGMSWVKQAPGKGLKWMGWINTDSGVPTYADDFKGRFAFSLETSANTAYLQINSLKNEDAATYFCARNIYYGWGNFDYWGQGTILTVSS VL: DILMTQSPTTLSVTPGETVSLSCRASQDIYRNLHWYQQKSQGTPRLLIKHASDSISGIPSRFTGSGSGTDFTLSINSVKPEDEGIYYCLQGYSMPYTFGGGTKLEIK | – | – | – | – | 53.4% | 16.5% | 0.1% | 39.8% | 4.4% | 230 pM
